Here are results for 5 variants from FireProtDB (doi:10.1021/bi050502v).

To fix the notation:
B1: Apolipophorin-3b, P10762 (parent)
chain: MNTLLAVLMLAVAAQARPDAAGHVNIAEAVQQLNHTIVNAAHELHETLGLPTPDEALNLLTEQANAFKTKIAEVTTSLKQEAEKHQGSVAEQLNRFARNLNNSIHDAATSAQPADQLNSLQSALTNVGHQWQTSQPRPSVAQEAWAPVQSALQEAAEKTKEAAANLQNSIQSAVQKPAN

The variants in the data set derive from B1. The conditions noted are these: Locusta migratoria, pH 7.4, CD, Na2HPO4 KH2PO4 10 mM 2 mM, NaCl 127 mM, reversible: yes, structure 1LS4, whole UniProt chain shown; for ddG of mutation (higher = less stable) / denaturant midpoint (higher = more stable) / unfolding free energy: 25 °C, GdnHCl; for Tm / change of melting temperature, mutant - wild type (higher = more stable): Thermal.

L33K: the “ddG of mutation (higher = less stable)” value came out at 1.36 kcal/mol, the “denaturant midpoint (higher = more stable)” value (from here on “denaturant midpoint”) came to 0.2 M, the unfolding free energy was 0.69 kcal/mol and the Tm was determined as 37 °C. In addition, the “change of melting temperature, mutant - wild type (higher = more stable)” value (from here on “change of melting temperature, mutant”) is -16 °C.

T47A: the “ddG of mutation (higher = less stable)” value is -0.6 kcal/mol, the “denaturant midpoint” value was found to be 0.62 M, the unfolding free energy came to 2.65 kcal/mol and the Tm was found to be 57 °C. In addition, the “change of melting temperature, mutant” value is 4 °C.

With T159A, the “ddG of mutation (higher = less stable)” value was 1.32 kcal/mol, the “denaturant midpoint” value stood at 0.28 M, the unfolding free energy came out at 0.73 kcal/mol and the melting temperature (Tm) was 44 °C. For the same variant, the “change of melting temperature, mutant” value is -9 °C.

As to A155K, the “ddG of mutation (higher = less stable)” value came out at 1.69 kcal/mol, the “denaturant midpoint” value amounted to 0.16 M, the unfolding free energy is 0.36 kcal/mol and the Tm came to 38 °C. Besides, the “change of melting temperature, mutant” value was -15 °C.

Take T47A T159A: the “ddG of mutation (higher = less stable)” value was 1.06 kcal/mol, the “denaturant midpoint” value was found to be 0.37 M and the unfolding free energy was 0.99 kcal/mol.
